Results as given in US20240325526A1.
Numbering of substitutions follows the chain as printed. Each block holds one molecule with its values, some of them ahead of it.

Assays:
[1] = target: IL1B_FL (Mus musculus wild-type pro-IL1β) (Mus musculus) (UniProt P10749); assay: cell-based or functional assay
[2] = target: hIL1B_FL (human wild-type pro-IL1β)
[3] = target: T1, IL1B_FL (Mus musculus wild-type pro-IL1β)
T1 chain: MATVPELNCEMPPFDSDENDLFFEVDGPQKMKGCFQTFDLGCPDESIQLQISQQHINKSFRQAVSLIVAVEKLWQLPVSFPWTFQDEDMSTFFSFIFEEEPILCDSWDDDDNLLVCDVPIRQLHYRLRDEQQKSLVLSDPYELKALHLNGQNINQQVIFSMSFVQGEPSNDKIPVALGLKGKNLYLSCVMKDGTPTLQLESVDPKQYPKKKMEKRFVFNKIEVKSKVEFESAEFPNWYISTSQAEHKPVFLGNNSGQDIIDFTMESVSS

- potency against CASP1 WT; IL-1β and LDH activity in supernatants of B16-F10 cells co-transfected with pro-IL1β plasmid [1]: 30 fold
Molecule: CASP1_RV2 (constitutively active murine caspase-1, p10 and p20 domain reversal, N-terminal p20 remnant removed) (from UniProt P29452 92-296) (enzyme)

B1: hCASP1_RV2_D108A (protein)
chain: MGNLSLPTTEEFEDDAIKKAHIEKDFIAFCSSTPDNVSWRHPTMGSVFIGRLIEHMQEYACSCDVEEIFRKVRFSFEQPDGRAQMPTTERVTLTRCFYLFPGHAYVHAAPVRDQTSGNYLNMQDSQGVLSSFPAPQAVQDNPAMPTSSGSEGNVKLCSLEEAQRIWKQKSAEIYPIMDKSSRTRLALIICNEEFDSIPRRTGAEVDITGMTMLLQNLGYSVDVKKNLTASDMTTELEAFAHRPEHKTSDSTFLVFMSHGIREGICGKKHSEQVPDILQLNAIFNMLNTKNCPSLKDKPKVIIIQACRGDSPGVVWFKD
- ability to process pro-IL1β (data not shown) [2]: did not significantly affect their ability to process pro-IL1β

B2: hCASP1_RV2_D140A (protein)
chain: B1 chain with A108D, D140A
- ability to process pro-IL1β (data not shown) [2]: did not significantly affect their ability to process pro-IL1β

B3: hCASP1_RV2_D124A (protein)
chain: B1 chain with A108D, D124A
- ability to process pro-IL1β (data not shown) [2]: did not significantly affect their ability to process pro-IL1β

B4: CASP1_RV2_D143A (protein)
chain: MSEEDFLTDAIFEDDGIKKAHIEKDFIAFCSSTPDNVSWRHPVRGSLFIESLIKHMKEYAWSCDLEDIFRKVRFSFEQPEFRLQMPTADRVTLTKRFYLFPGHLLVCDVPIRAPSAETFVATEDSKGGHPSSSETKEEQNKEAGTFPGLTGTLKFCPLEKAQKLWKENPSEIYPIMNTTTRTRLALIICNTEFQHLSPRVGAQVDLREMKLLLEDLGYTVKVKENLTALEMVKEVKEFAACPEHKTSDSTFLVFMSHGIQEGICGTTYSNEVSDILKVDTIFQMMNTLKCPSLKDKPKVIIIQACRGEKQGVVLLKD
- ability to process pro-IL1β (data not shown) [3]: did not significantly affect their ability to process pro-IL1β

B5: CASP1_RV2_D124A (protein)
chain: B4 chain with D124A, A143D
- ability to process pro-IL1β (data not shown) [3]: did not significantly affect their ability to process pro-IL1β

B6: CASP1_RV2_D108A (protein)
chain: B4 chain with D108A, A143D
- ability to process pro-IL1β (data not shown) [3]: did not significantly affect their ability to process pro-IL1β

B7: CASP1_RV2_D108A_D124A_D143A (protein)
chain: B4 chain with D108A, D124A
- ability to process pro-IL1β (data not shown) [3]: did not significantly affect their ability to process pro-IL1β
